The target in test [1] is T1, human complement component C3 (human, UniProt P01024 23-1663). In words: cell-based or functional assay.
The target in test [2] is T1, human complement component C3. In words: cell-based or functional assay. This is another data set of the same source.

B1: CA28-AEEAc-Lys-(PEG40k) (peptide)
peptide: ICVWQDWGAHRCTK
modifications: not fully specified; N-terminal acetyl; 1-methyl-Trp at 4; disulfide Cys2-Cys12; AEEAc after Thr13; Lys15 side chain coupled to linear 40 kD mPEG (NOF SUNBRIGHT ME-400GS); C-terminal amide
B1: the “IC50 (read off the curve); classical pathway C3b deposition ELISA, human plasma” value (shortened to “IC50 (read off the curve)”) in test [1] is around 600 nM.

B2: CA28-AEEAc-Lys(mPEG40K-succinyl) (peptide)
peptide: ICVWQDWGAHRCTK
modifications: not fully specified; N-terminal acetyl; 1-methyl-Trp at 4; disulfide Cys2-Cys12; AEEAc after Thr13; Lys15 side chain coupled to linear 40 kD mPEG (NOF SUNBRIGHT ME-400CS); C-terminal amide
In the case of B2, the “IC50 (read off the curve)” value in test [1] is around 600 nM.

B3: CA28-AEEAc-Lys(mPEG40K-carbonyl) (peptide)
peptide: ICVWQDWGAHRCTK
modifications: not fully specified; N-terminal acetyl; 1-methyl-Trp at 4; disulfide Cys2-Cys12; AEEAc after Thr13; Lys15 side chain coupled to linear 40 kD mPEG (NOF SUNBRIGHT ME-400TS); C-terminal amide
For B3, the “IC50 (read off the curve)” value in test [1] was around 600 nM.

B4: CA28-AEEAc-Lys(mPEG40K-hexanoyl) (peptide)
peptide: ICVWQDWGAHRCTK
modifications: not fully specified; N-terminal acetyl; 1-methyl-Trp at 4; disulfide Cys2-Cys12; AEEAc after Thr13; Lys15 side chain coupled to linear 40 kD mPEG (NOF SUNBRIGHT ME-400HS); C-terminal amide
On to B4, for which the “IC50 (read off the curve)” value in test [1] was around 600 nM.

B5: CA28-2GS-BF (peptide)
peptide: ICVWQDWGAHRCTK
modifications: not fully specified; N-terminal acetyl; 1-methyl-Trp at 4; disulfide Cys2-Cys12; AEEAc after Thr13; Lys side chain coupled to one end of a bifunctional linear 40 kD PEG of the GS type (NHS-OCO(CH2)3COO-PEG-CO(CH2)3COO-NHS); C-terminal …
Turning to B5, in test [2], the “Q1 (Type III cells with high C3d deposition) % Parent, modified Ham's assay, 50 ug/ml” value was determined as 0.01%; the “Q2 (Type I and II cells with high C3d deposition) % Parent, modified Ham's assay, 50 ug/ml” value came to 0.01%; the “Q3 (Type III cells without significant C3d deposition) % Parent, modified Ham's assay, 50 ug/ml” value was found to be 61.5%; the “Q4 (Type I and II cells without significant C3d deposition) % Parent, modified Ham's assay, 50 ug/ml” value was 38.5%.

Source of the values: patent US20230091471A1 (APELLIS PHARMACEUTICALS, published 2023).
